From the supplement of paper PMC12764529 come the findings set out here.

± gives the half width of the 95% confidence interval.

Data set [1] in a line: folding stability dG unfold from chymotrypsin proteolysis; higher = more stable. The essentials:
(§1)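 Unfolding free energy was derived, per protease or combined, against a sequence-predicted unfolded-state K50 and a shared folded-state K50, starting from K50 inferred by Bayesian fitting of sequencing counts. Digestion with trypsin and chymotrypsin was carried out on designed mini-proteins under 80 residues without cysteine in a PA-tagged cDNA display construct. Only designs with AlphaFold2 dimer inter-PAE above 15 were kept.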

A short description of data set [2]: folding stability dG unfold from trypsin proteolysis; higher = more stable. The essentials: as §1
Data set [3] can be described thus: folding stability dG unfold (combined trypsin and chymotrypsin); higher = more stable. The essentials:
as §1

For the sequence “SAGGSAGGSAGGMKKGQKFKPVKKVKLRFKVKVKVKVGGKEYEFEAEVELEVEFYVLEDSAGGSAGGSAGGS [r10_758_TrROS_Hall]”, the “folding stability dG unfold” value in data set [1] was found to be 4.41 ± 0.17 kcal/mol; in data set [2] it was 2.55 ± 0.2 kcal/mol; in data set [3], 3.68 ± 0.25 kcal/mol.

For the sequence “SAGGSAGGSAGGMKKPILLPGETEEDVLERIKKLPKDYKVTIEKLDDDKLLVTITSPKLGSAGGSAGGSAGG [r7_662_JUSTAS]”, the “folding stability dG unfold” value in data set [1] was -0.5 ± 0.51 kcal/mol; in data set [2] it was 0.877 ± 0.14 kcal/mol; in data set [3], 0.58 ± 0.33 kcal/mol.

As for “SAGGSAGGSAGGMKLDVTIVGDGKVTTLPADSLEDVEETLKKLGLTLKSVDPATGTVTVASAGGSAGGSAGG [r7_726_JUSTAS]”, the “folding stability dG unfold” value is -0.0786 ± 0.54 kcal/mol in data set [1], 0.718 ± 0.051 kcal/mol in data set [2] and 0.305 ± 0.19 kcal/mol in data set [3].

Turning to “SAGGSAGGSAGGMKTITIKVPSSVSFEEAKKKAEALFPKSIPVKVEYDPKTGTFTVTVESAGGSAGGSAGGS [r10_163_JUSTAS]”, the “folding stability dG unfold” value in data set [1] is 2.349 ± 0.015 kcal/mol; in data set [2], 1.77 ± 0.035 kcal/mol; in data set [3], 2.17 ± 0.046 kcal/mol.

Take “SAGGSAGGSAGGMKTITLTTTSPEEAEAAKEKLLKEGPNNLVITYKPPPEPYPENGPRVVSAGGSAGGSAGG [r7_261_JUSTAS]”: the “folding stability dG unfold” value is 0.743 ± 0.14 kcal/mol in data set [1], -0.294 ± 0.25 kcal/mol in data set [2] and 0.683 ± 0.21 kcal/mol in data set [3].

On to “SAGGSAGGSAGGMKTLTVTTESLTKEEIIEEIKAMGYPNAKVTVTPSPENPDKYIVNVIESAGGSAGGSAGG [r7_988_JUSTAS]”, for which the “folding stability dG unfold” value in data set [1] came to 0.736 ± 0.13 kcal/mol; in data set [2] it was 0.292 ± 0.091 kcal/mol; in data set [3] it was 0.404 ± 0.18 kcal/mol.

As for “SAGGSAGGSAGGMKVKAYIFENGKLKEIELSEEELKELLKKLPNARILIEVDGKKLELPASAGGSAGGSAGG [r7_188_TrROS_Hall]”, the “folding stability dG unfold” value in data set [1] stood at 3.79 ± 0.12 kcal/mol; in data set [2], 1.93 ± 0.083 kcal/mol; in data set [3], 3.51 ± 0.2 kcal/mol.

Turning to “SAGGSAGGSAGGMKVTTINLPDGTTIEYYPETGSVTIHPSDGSVSTRPDLTLEDVLAALSAGGSAGGSAGGS [r10_569_JUSTAS]”, the figures for the “folding stability dG unfold” value in data set [1], in data set [2] and in data set [3] were 1.81 ± 0.031 kcal/mol, 2.38 ± 0.066 kcal/mol and 2.07 ± 0.051 kcal/mol, respectively.

In the case of “SAGGSAGGSAGGMLSGQVIEVTIPPERRLVRVEKLPSGDYLITIYRPDEPKPLETLRIRASAGGSAGGSAGG [r7_620_JUSTAS]”, the entries for the “folding stability dG unfold” value in data set [1], in data set [2] and in data set [3] were 1.92 ± 0.071 kcal/mol, 1.49 ± 0.034 kcal/mol and 1.78 ± 0.11 kcal/mol, respectively.

As for “SAGGSAGGSAGGMLYVKVKTEDGEELVLEVEGMTEDEIREELAKAGFKIEEIEVYEVEPSAGGSAGGSAGGS [r10_572_TrROS_Hall]”, the figures for the “folding stability dG unfold” value in data set [1], in data set [2] and in data set [3] were 2.83 ± 0.018 kcal/mol, 2.36 ± 0.093 kcal/mol and 2.71 ± 0.06 kcal/mol, respectively.

As to “SAGGSAGGSAGGMPLVRIEVTNENGEKFTFIFESEEEAKAAAEALGVDVKIEKIPPGEEISAGGSAGGSAGG [r7_456_TrROS_Hall]”, the “folding stability dG unfold” value in data set [1] came out at 3.25 ± 0.085 kcal/mol; in data set [2] it was 2.54 ± 0.17 kcal/mol; in data set [3], 2.92 ± 0.14 kcal/mol.

Regarding “SAGGSAGGSAGGMPPATTVVEKPETSLTLEKTPTTVTIHDKATGKTSTVPAAEVDPALLSAGGSAGGSAGGS [r10_512_JUSTAS]”, the figures for the “folding stability dG unfold” value in data set [1], in data set [2] and in data set [3] were 0.297 ± 0.075 kcal/mol, -0.373 ± 0.11 kcal/mol and 0.138 ± 0.1 kcal/mol, respectively.

On to “SAGGSAGGSAGGMPPFVELEFVGEFKVNGEKVLVLRLPDGSIRIVNLKTGETITVPASLLSAGGSAGGSAGG [r7_28_JUSTAS]”, for which the “folding stability dG unfold” value turned out to be 2.67 ± 0.038 kcal/mol in data set [1], 2.33 ± 0.048 kcal/mol in data set [2] and 2.57 ± 0.067 kcal/mol in data set [3].

With “SAGGSAGGSAGGMPPGTVVRSEVVRTETFTETITLPSGETATTTVTTTTTTEVEVEQPLSAGGSAGGSAGGS [r10_297_JUSTAS]”, the “folding stability dG unfold” value was 0.469 ± 0.047 kcal/mol in data set [1], 0.233 ± 0.079 kcal/mol in data set [2] and 0.54 ± 0.22 kcal/mol in data set [3].

Consider “SAGGSAGGSAGGMPTYEVTLEPDPTGGDVYTVTVTFPDGSTVTRNATPAELKAEGLTVKVSAGGSAGGSAGG [r7_14_JUSTAS]”, for which the figures for the “folding stability dG unfold” value in data set [1], in data set [2] and in data set [3] were 0.88 ± 0.044 kcal/mol, 1.09 ± 0.039 kcal/mol and 0.967 ± 0.072 kcal/mol, respectively.

In the case of “SAGGSAGGSAGGMPVEVTTLETRKDPAGTTTEITLDPKTGRTIIVTKYPNGGSETTVVESAGGSAGGSAGGS [r10_1118_JUSTAS]”, the figures for the “folding stability dG unfold” value in data set [1], in data set [2] and in data set [3] were 0.504 ± 0.065 kcal/mol, 0.788 ± 0.069 kcal/mol and 0.622 ± 0.17 kcal/mol, respectively.

As for “SAGGSAGGSAGGMRIRLENGEVIKIKNAKTKEELLNALKAIPGLKIEYDEETKELWIYRSAGGSAGGSAGGS [r10_792_TrROS_Hall]”, the entries for the “folding stability dG unfold” value in data set [1], in data set [2] and in data set [3] were 2.33 ± 0.097 kcal/mol, 1.88 ± 0.075 kcal/mol and 2.22 ± 0.16 kcal/mol, respectively.

As to “SAGGSAGGSAGGMSLSTSVESLTVFDSSGNVLEERTITVEKTVPLFGKPVYVYPTPSNTLSAGGSAGGSAGG [r17_325_JUSTAS]”, the “folding stability dG unfold” value in data set [1] was 0.248 ± 0.11 kcal/mol; in data set [2], 0.136 ± 0.1 kcal/mol; in data set [3] it was 0.265 ± 0.12 kcal/mol.

As for “SAGGSAGGSAGGMSPGSSSTTVTTTTSPNGTVVTTTTTTTLDPNSNTTSSTTTTTTTTTSAGGSAGGSAGGS [r10_1164_JUSTAS]”, the “folding stability dG unfold” value amounted to 1.74 ± 0.18 kcal/mol in data set [1], 3.15 ± 0.25 kcal/mol in data set [2] and 2.42 ± 0.25 kcal/mol in data set [3].

For the sequence “SAGGSAGGSAGGMSSTVSLSTSFLPNGEKVVTTTTTFTDSSTTTTTTTTTTVALPPPSVVSAGGSAGGSAGG [r7_495_JUSTAS]”, the results for the “folding stability dG unfold” value in data set [1], in data set [2] and in data set [3] were 0.984 ± 0.093 kcal/mol, 1.14 ± 0.075 kcal/mol and 1.23 ± 0.14 kcal/mol, respectively.

Turning to “SAGGSAGGSAGGMSVTVSREKLPDGSYLVTVTTEVGGGPVTTPYRVPPSLSSAEEVVEKLSAGGSAGGSAGG [r7_75_JUSTAS]”, the “folding stability dG unfold” value was -0.659 ± 0.51 kcal/mol in data set [1], -0.0439 ± 0.14 kcal/mol in data set [2] and -0.23 ± 0.2 kcal/mol in data set [3].

Regarding “SAGGSAGGSAGGMTAIIVESEEEAKKIAEEKGIKDVKFIPKGKPELLKPDVDKVIKINKKSAGGSAGGSAGG [r7_381_JUSTAS]”, the “folding stability dG unfold” value in data set [1] is 0.348 ± 0.075 kcal/mol; in data set [2] it was -0.282 ± 0.22 kcal/mol; in data set [3] it was 0.102 ± 0.33 kcal/mol.

In the case of “SAGGSAGGSAGGMTAKEIAEKLGLPPGAKVVKIEYDKETNTFYIVIEVDGELKTYRIDVSAGGSAGGSAGGS [r10_17_TrROS_Hall]”, the “folding stability dG unfold” value in data set [1] was 4.765 ± 0.037 kcal/mol; in data set [2], 4.2 ± 0.14 kcal/mol; in data set [3], 4.69 ± 0.087 kcal/mol.

In the case of “SAGGSAGGSAGGMTITIKVPPNMTEEQLRELARELARKLGLEDVEVRIERREDGTVRITFSAGGSAGGSAGG [r7_810_TrROS_Hall]”, the “folding stability dG unfold” value in data set [1] was found to be 4.83 ± 0.12 kcal/mol; in data set [2], 4.91 ± 0.2 kcal/mol; in data set [3], 4.85 ± 0.15 kcal/mol.

Take “SAGGSAGGSAGGMTITLVDPENGVKEAEIEEVDGKLRITVVNEETGEKEEIELPLEELLSAGGSAGGSAGGS [r10_772_TrROS_Hall]”: the “folding stability dG unfold” value in data set [1] is 0.288 ± 0.14 kcal/mol; in data set [2], 0.648 ± 0.063 kcal/mol; in data set [3] it was 0.477 ± 0.16 kcal/mol.

With “SAGGSAGGSAGGMTITVNGPTATITYPDGSVETIPLTSPEEFEALKAAHPDVEATPASPSAGGSAGGSAGGS [r10_1211_JUSTAS]”, the “folding stability dG unfold” value in data set [1] turned out to be 1.21 ± 0.014 kcal/mol; in data set [2], 0.353 ± 0.047 kcal/mol; in data set [3], 0.967 ± 0.093 kcal/mol.

Turning to “SAGGSAGGSAGGMTIVIVVPAENLTPEEIAELLREAGYEVTVERREDGYLVVTVRLPEPSAGGSAGGSAGGS [r10_1254_TrROS_Hall]”, the “folding stability dG unfold” value in data set [1] is 3.08 ± 0.052 kcal/mol; in data set [2] it was 3.5 ± 0.083 kcal/mol; in data set [3] it was 3.43 ± 0.048 kcal/mol.

Regarding “SAGGSAGGSAGGMTKLEPLATEPNPLKVLTKVTTTDPVTGKPKTTIVETEIPVPESELGSAGGSAGGSAGGS [r10_846_JUSTAS]”, the “folding stability dG unfold” value was -0.0657 ± 0.13 kcal/mol in data set [1], 0.0416 ± 0.06 kcal/mol in data set [2] and 0.0083 ± 0.12 kcal/mol in data set [3].

“SAGGSAGGSAGGMTLEELKKAIENAKPGETIEIEINGETYRITIIEKDGKLIIKIEKLPPSAGGSAGGSAGG [r7_448_TrROS_Hall]”: the figures for the “folding stability dG unfold” value in data set [1], in data set [2] and in data set [3] were 4.21 ± 0.25 kcal/mol, 4.36 ± 0.36 kcal/mol and 4.19 ± 0.24 kcal/mol, respectively.

“SAGGSAGGSAGGMTLVIVVETEEQAEALAEELKKKGFEVTVERDEETNLLVVTVKVKPPPSAGGSAGGSAGG [r7_623_TrROS_Hall]”: the figures for the “folding stability dG unfold” value in data set [1], in data set [2] and in data set [3] were 3.36 ± 0.11 kcal/mol, 4.04 ± 0.25 kcal/mol and 3.66 ± 0.12 kcal/mol, respectively.

On to “SAGGSAGGSAGGMTPEEIEAALQKAREENSEDEEFTVTVTDPETGEVLTIRIDPNSVTIESAGGSAGGSAGG [r7_45_JUSTAS]”, for which the “folding stability dG unfold” value in data set [1] is -0.0816 ± 0.11 kcal/mol; in data set [2], 1.15 ± 0.034 kcal/mol; in data set [3], 0.719 ± 0.08 kcal/mol.

As for “SAGGSAGGSAGGMTPEEIEALKARPLPDGSPILSIDREGNVYTITTARDPSVRTTVIPAESAGGSAGGSAGG [r7_995_JUSTAS]”, the figures for the “folding stability dG unfold” value in data set [1], in data set [2] and in data set [3] were -0.853 ± 0.43 kcal/mol, -0.623 ± 0.61 kcal/mol and -0.626 ± 0.54 kcal/mol, respectively.

“SAGGSAGGSAGGMTPIEKEEPHHHMTFTREGDTVSLETFPGSGSIRKTLPSEEEVEKLLSAGGSAGGSAGGS [r10_1104_JUSTAS]”: the “folding stability dG unfold” value in data set [1] was 0.156 ± 0.096 kcal/mol; in data set [2], -0.413 ± 0.071 kcal/mol; in data set [3], 0.00761 ± 0.11 kcal/mol.

With “SAGGSAGGSAGGMTTTTTAPESGDLVTIHPEKGIAVVTSPEGKVTEVPIDPDDYSVEPASAGGSAGGSAGGS [r10_568_JUSTAS]”, the “folding stability dG unfold” value in data set [1] was 1.57 ± 0.079 kcal/mol; in data set [2], 0.343 ± 0.076 kcal/mol; in data set [3], 1.19 ± 0.12 kcal/mol.

With “SAGGSAGGSAGGMTTTTVSRSPDGTITTTTTTYVPTPDGSVVPVTTTTTTTPIDPAALSSAGGSAGGSAGGS [r10_991_JUSTAS]”, the “folding stability dG unfold” value stood at 1.39 ± 0.017 kcal/mol in data set [1], 1.45 ± 0.046 kcal/mol in data set [2] and 1.42 ± 0.036 kcal/mol in data set [3].
